# Patent US20190233521A1 (GENEFRONTIER, published 2019)
# Numbering of substitutions follows the chain as printed.
# T1: human CD69 recombinant protein (extracellular region 62-199, homodimer) (human, UniProt Q07108 62-199)
# T1 construct: Expressed in the E. coli periplasm from cDNA NM_001781; also called human CD69 homodimer protein; extracellular domain of human CD69
# T1 sequence: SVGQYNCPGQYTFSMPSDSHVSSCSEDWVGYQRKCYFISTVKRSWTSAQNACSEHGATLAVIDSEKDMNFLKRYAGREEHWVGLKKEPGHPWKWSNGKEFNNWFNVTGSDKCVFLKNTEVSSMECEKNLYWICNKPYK
# T2: human CD69 partial peptide #24 (MNFLKRYAGREE) (human)
# T2 construct: Immobilized on a PepSpots peptide array (JPT)
# T2 peptide: MNFLKRYAGREE
# T3: human CD69 partial peptide #25 (LKRYAGREEHWV) (human)
# T3 construct: Immobilized on a PepSpots peptide array (JPT)
# T3 peptide: LKRYAGREEHWV
# T4: human CD69 partial peptide #26 (YAGREEHWVGLK) (human)
# T4 construct: Immobilized on a PepSpots peptide array (JPT)
# T4 peptide: YAGREEHWVGLK
# B1: 160-c103 IgG antibody (IgG4) (antibody, V domains shown)
# VH: QVQLVESGGGLVQPGGSLRLSCAASGFTFSNYYMSWVRQAPGKGLEWVSVISYDGISTHYADSVKGRFTISRDNSKNTLYLQMNSLRAEDTAVYYCARYIGNSLYMDFWGQGTLVTVSS
# VL: DIVLTQSPATLSLSPGERATLSCRASQSVSSYLAWYQQKPGQAPRLLIYGTSIRATGVPARFSGSGSGTDFTLTISSLEPEDFATYYCQQEYSSPPTFGQGTKVEIKR
# notes: Full IgG made in HEK293T; HRP-labelled in the peptide array
# B2: 234-61 IgG antibody (IgG4) (antibody, V domains shown)
# VH: QVQPGGSLRLSCAASGFTFSNFVMHWVRQAPGKGLEWVSSISGSSSSTYYADSVKGRFTISRDNSKNTLYLQMNSLRAEDTAVYYCARYYYASFDYWGQGTLVTVSS
# VL: DIELTQPPSVSVAPGQTARISCSGDSLGSKYVYWYQQKPGQAPVVVIYGDSKRPSGIPERFSGSNSGNTATLTISGTQAEDEADYYCQSYTSFTTKIVFGGGTKLTVLG
# B3: 160-c76 IgG antibody (IgG4) (antibody, V domains shown)
# VH: B2 VH
# VL: DIELTQPPSVSVAPGQTARISCSGDSLGSKYVYWYQQKPGQAPVVVIYGDSKRPSGIPERFSGSNSGNTATLTISGTQAEDEADYYCQSYDSNIMVFGGGTKLTVLG
# notes: Full IgG made in HEK293T
# B4: 234-83 IgG antibody (IgG4) (antibody, V domains shown)
# VH: B2 VH
# VL: B2 VL with Q88G, S92T, F93G, T94A, T95K, K96S, I97H
# notes: HRP-labelled in the peptide array
# B5: 160-c7 IgG antibody (IgG4) (antibody, V domains shown)
# VH: QVQLVQSGAEVKKPGASVKVSCKASGYTFTSYDMHWVRQAPGQGLEWMGWINPYSGNTNYAQKFQGRVTMTRDTSISTAYMELSSLRSEDTAVYYCARMYYDKDYLSWGTDSWGQGTLVTVSS
# VL: DIQMTQSPSSLSASVGDRVTITCRASQDISSYLNWYQQKPGKAPKLLIYGASNLQSGVPSRFSGSGSGTDFTLTISSLQPEDFAVYYCQQYSDYPHTFGQGTKVEIKR
# notes: as for B1
# Key:
# [1] = target: T1, human CD69 recombinant protein …; assay: Scatchard plot; solution equilibrium with antigen, free IgG measured by ELISA
# Protocol: In the present specification, the KD value relating to the binding affinity of the antibody of the present invention to human CD69 is calculated according to the principle described in Immunoassays (OXFORD UNIVERSITY PRESS, 2000) using a scatchard plot method. An antibody is incubated with various concentrations of antigen (extracellular domain of human CD69) at room temperature for 2 hr until equilibrium, and the amount of free antibody present in the incubation solutions is measured by the ELISA method. The binding constant and dissociation constant (KD value) are determined based on the changes in the amount of free antibody in each equilibrated sample. The antibody concentration during equilibration reaction is to be 0.015 μg/ml, and an ELISA plate for the measurement of the amount of free antibody is to be immobilized with the antigen at 1 μg/ml.
# (§1) The affinity of the prepared IgG clones for human CD69 was evaluated by scatchard plot. To be specific, it was calculated according to the principle described in Immunoassays (OXFORD UNIVERSITY PRESS, 2000). An antibody was incubated with various concentrations of antigen at room temperature for 2 hr until it reaches equilibrium, and the amount of free antibody present in the incubation liquids was measured by the ELISA method. The binding constant and dissociation constant (KD value) were determined based on the changes in the amount of free antibody in each equilibrate sample. The concentration of the antibody in the equilibration reaction was set to […], and an ELISA plate immobilized with the antigen at 1 μg/ml was used for the measurement of the amount of free antibody.
# [2] = target: T2, human CD69 partial peptide #24 …; assay: peptide array (PepSpots), HRP-labelled antibody
# Description: (§2) To be specific, as shown in the following Table, a peptide array consisting of peptides having the residue number of 12 amino acid residues and an offset of 3 amino acid residues was produced for a sequence covering the extracellular domain of human CD69 (60-199) (PepSpots, manufactured by JPT). The peptide array and the anti-human CD69 antibody were reacted according to the manual of JPT. Anti-human CD69 antibodies labeled with HRP (Peroxidase Labeling Kit-NH2, manufactured by Dojindo) were used.
# [3] = target: T3, human CD69 partial peptide #25 …; assay: peptide array (PepSpots), HRP-labelled antibody
# Description: as §2
# [4] = target: T4, human CD69 partial peptide #26 …; assay: peptide array (PepSpots), HRP-labelled antibody
# Description: as §2
# [5] = target: T1, human CD69 recombinant protein …; assay: Scatchard plot KD; reference 160-c76 IgG
# Protocol: as §1
Binder,Kd [1] [nM],binding result [2],binding result [3],binding result [4],fold increase of affinity against 160-c76 [5] [fold]
B1,7.58,binds,binds,binds,
B2,1.13,,,,9
B3,27.8,,,,
B4,2.83,,,,≥ 9
B5,47.6,,,binds,
